For one molecule, koff and Kd results are on record in paper PMC12749359, “Chromosome compartment assembly is essential for subtelomeric gene silencing in trypanosomes” (Nature Communications, 2025).

Assay [1] concerns the target T1, repressor-activator protein 1, His-tagged recombinant (T. brucei, UniProt Q387L4 1-855).
T1 chain: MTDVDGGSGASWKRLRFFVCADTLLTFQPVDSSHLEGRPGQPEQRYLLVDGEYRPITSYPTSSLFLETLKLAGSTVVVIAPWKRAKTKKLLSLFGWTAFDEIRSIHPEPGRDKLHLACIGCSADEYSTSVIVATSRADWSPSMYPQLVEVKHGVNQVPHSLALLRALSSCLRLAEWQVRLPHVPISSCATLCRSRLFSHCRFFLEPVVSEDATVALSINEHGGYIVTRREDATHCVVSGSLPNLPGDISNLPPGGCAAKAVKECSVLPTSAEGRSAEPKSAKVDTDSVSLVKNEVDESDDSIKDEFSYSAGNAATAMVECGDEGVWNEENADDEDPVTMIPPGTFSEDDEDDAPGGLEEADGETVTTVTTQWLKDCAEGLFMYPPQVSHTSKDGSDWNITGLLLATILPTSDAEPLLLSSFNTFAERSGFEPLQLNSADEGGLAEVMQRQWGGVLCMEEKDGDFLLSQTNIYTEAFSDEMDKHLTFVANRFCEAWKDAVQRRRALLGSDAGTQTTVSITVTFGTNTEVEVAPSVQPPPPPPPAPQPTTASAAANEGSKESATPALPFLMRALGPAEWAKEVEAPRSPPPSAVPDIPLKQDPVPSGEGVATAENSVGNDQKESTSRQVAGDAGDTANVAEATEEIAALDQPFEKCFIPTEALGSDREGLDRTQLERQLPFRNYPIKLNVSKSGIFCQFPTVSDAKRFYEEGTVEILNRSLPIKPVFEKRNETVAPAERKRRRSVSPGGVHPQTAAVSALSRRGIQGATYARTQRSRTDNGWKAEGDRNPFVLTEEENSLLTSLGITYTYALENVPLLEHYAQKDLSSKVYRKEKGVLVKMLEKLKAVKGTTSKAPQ
The experiment in a line: SPR. For orientation: In SPR one partner is held on a chip, and binding of the other changes the refractive index at the surface.

Assay [2] deals with T1, repressor-activator protein 1, …. Description: SPR.
The target of assay [3] is T2, repressor-activator protein 1, His-tagged recombinant (T. brucei, UniProt Q387L4 1-855).
T2 construct: RAP1 of Trypanosoma brucei, recombinant; also called RAP1-His; his-tagged RAP1; source: recombinantly produced in E. coli
T2 sequence (looked up): T1 chain
Description: SPR; RAP1-His immobilised on NTA sensor (Nicoya OpenSPR-XT), blocked with 0.5% BSA; PIP5Pase-V5 added at 0.0008, 0.004, 0.008, 0.016 nM; 20 mM HEPES, 150 mM NaCl, 10 mM KCl, 10 mM MgCl2, 10 mM CaCl2, 0.2% NP-40; three replicates. The note with it: both partners purified.

B1: phosphatidylinositol phosphate 5-phosphatase, V5-tagged (enzyme, T. brucei, UniProt Q385E2 1-564, looked up)
chain: MRSLLEGITSTLRSAQQHQTGWDPRNATSTGVPTTAQEAFSGGVPAVAQRDLSHVEGPVSSKGGAPMDCITGYSRFSTHSPPDFPFRMLMITQNVGAIGDTAAGAKEGGEEHRRECEKQAGNDELSSDAQKDVREFLSELRLLIFEYSRREYTAHIRVSNTGDDDPSHPSAADIGGQGPPPLIDVIVVHFQEIGGKSFHTEFNNYFANALQELLPEAGWTSGLLMRANDDEDQFTAVGSVVYLSHRMCPISSILSFHHRTFVCVGDDPVTYGSSPTILFHGGKFSGAGESRKGYLLISLRLGTVVVNFLNVHLYNDKKSKEAAAASPSPYALQRQEALLETLAECAAFISPDDPLFIFGDFNTRLDVHNMLQYLKEVENLDVKVSDGDVRAPDSFWELFENPQHMGVIRPYDVEVQRLLDVVAQQSGMELAEFAVRFPPTYLCQSPRDSEEATFQIDTPVHLVNDGEDKRESGTSDRISVVRVLERLSSIPHHPYGRRRVPAWCDRVLWNPPALELMTGRRTSQSVAGSSATAHGGTGVGALRRYVYRSVALRHTDHAAVTLFF
notes: PIP5Pase of Trypanosoma brucei, endogenous allele tagged at the C-terminus (pMOTag3V5) in Lister 427 single-marker cells; also called PIP5Pase; PIP5Pase-V5; source: T. brucei bloodstream forms, endogenously tagged allele, in lysate of DSS cross-linked cells (XLMS, IP); isolated from T. brucei (SPR); not shown: 3xV5 (42 amino acids), C-terminal, kept
One may read the koff as the first-order rate constant of dissociation. By Kd is commonly meant a measure of binding affinity in units of concentration. For B1, the koff in assay [1] was 0.41 s⁻¹. The Kd in assay [2] is 0.27 µM; in assay [3], 0.0027 µM.
